Data taken from patent US10538802B2, “Polypeptide substrate for the detection of von Williebrand factor cleaving protease ADAMTS13” (IMMUCOR GTI DIAGNOSTICS, INC., priority 2011, dated 2020).

Target: T1, ADAMTS13 (Homo sapiens, UniProt Q76LX8)
T1 construct: tissue Gen-Probe GTI Diagnostics (ATS-13 kit calibrators, controls and proficiency samples); George King Biomedical Inc. (FACT, A-FACT, B-FACT plasmas) ATS-13; host or cells: plasma
T1 sequence (Q76LX8 75-1427): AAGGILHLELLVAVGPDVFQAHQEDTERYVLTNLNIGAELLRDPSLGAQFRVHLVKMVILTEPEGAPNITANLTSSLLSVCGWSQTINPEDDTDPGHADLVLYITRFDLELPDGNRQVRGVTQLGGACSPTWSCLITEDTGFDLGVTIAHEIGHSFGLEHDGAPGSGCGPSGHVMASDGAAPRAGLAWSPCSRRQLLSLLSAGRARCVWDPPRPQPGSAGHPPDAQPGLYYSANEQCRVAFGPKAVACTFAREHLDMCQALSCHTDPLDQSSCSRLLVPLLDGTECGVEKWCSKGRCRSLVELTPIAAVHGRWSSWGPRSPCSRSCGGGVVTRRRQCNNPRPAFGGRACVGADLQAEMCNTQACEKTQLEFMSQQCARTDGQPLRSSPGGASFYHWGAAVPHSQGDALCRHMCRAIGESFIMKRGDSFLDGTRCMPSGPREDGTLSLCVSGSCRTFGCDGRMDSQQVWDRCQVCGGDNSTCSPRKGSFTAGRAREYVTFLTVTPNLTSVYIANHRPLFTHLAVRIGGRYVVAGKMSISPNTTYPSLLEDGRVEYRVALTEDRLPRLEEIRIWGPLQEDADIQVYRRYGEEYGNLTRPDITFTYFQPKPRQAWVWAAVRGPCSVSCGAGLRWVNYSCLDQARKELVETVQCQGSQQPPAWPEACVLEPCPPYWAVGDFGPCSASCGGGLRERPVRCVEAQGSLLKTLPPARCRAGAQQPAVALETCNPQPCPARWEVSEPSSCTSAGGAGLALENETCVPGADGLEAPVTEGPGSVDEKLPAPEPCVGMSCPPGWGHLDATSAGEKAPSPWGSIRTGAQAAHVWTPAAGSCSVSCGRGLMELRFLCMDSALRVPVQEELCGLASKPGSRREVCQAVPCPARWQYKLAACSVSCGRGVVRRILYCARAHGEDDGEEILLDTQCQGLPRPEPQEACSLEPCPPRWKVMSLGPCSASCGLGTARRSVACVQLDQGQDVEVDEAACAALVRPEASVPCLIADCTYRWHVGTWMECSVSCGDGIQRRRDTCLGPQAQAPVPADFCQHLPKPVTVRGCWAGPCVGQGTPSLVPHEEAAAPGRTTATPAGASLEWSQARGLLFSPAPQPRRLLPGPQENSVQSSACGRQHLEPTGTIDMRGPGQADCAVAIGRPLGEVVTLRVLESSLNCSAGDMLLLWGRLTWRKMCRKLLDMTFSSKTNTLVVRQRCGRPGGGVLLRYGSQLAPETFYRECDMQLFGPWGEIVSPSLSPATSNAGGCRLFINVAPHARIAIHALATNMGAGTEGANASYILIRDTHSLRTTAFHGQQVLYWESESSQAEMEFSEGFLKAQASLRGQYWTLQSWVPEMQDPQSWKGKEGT
Experiment: ADAMTS13 activity assay with fluorogenic (FRET) polypeptide substrate and diluted plasma samples
Type: biochemical
Experimental: The procedure in this example was performed substantially as described in Kokame, K., Y. Nobe, Y. Kokubo, A. Okayama, and T. Miyata. 2005. FRETS-VWF73, a first fluorogenic substrate for ADAMTS13 assay. Br. J. Haematol. 129:93-100, but using SEQ ID NO: 1 in place of the 73 amino acid substrate described therein. The FRETS-VWF73 substrate solution was dissolved in 25% dimethyl sulphoxide/water to prepare the 100 microM stock solution. The GTI FRET4 SEQ ID NO: 1 was dissolved in 100% DMSO. Both substrates were diluted to equal concentrations using ATS-13 substrate buffer (Gen-Probe GT1 Diagnostics, Inc., U.S.A., Cat#ATS-13).
Plasma samples were diluted according to the ATS-13 Direction Insert using ATS-13 specimen diluent (Gen-Probe GTI Diagnostics, Inc., U.S.A., Cat# ATS-13). The diluted plasma samples were mixed with the diluted substrate and the fluorescence was read at 0, 5, 10, 15, 20, 30, 45 minutes using a Biotek FLX800 at the appropriate excitation and emission wavelengths for each substrate.
The fluorophore-quencher pair in the SEQ ID NO: 1 polypeptide substrate is FAM-5/TQ 2^Tm (Ex 485±20; Em 528±20; AAT Bioquest, Inc. Sunnyvale, Calif. U.S.A.). The fluorophore and quencher pair of FRETS-VWF73 (Nma/Dnp) described in Kokame has been substituted with FAM-5 and TQ_2 respectively in GTI_FRET4 SEQ ID NO: 1. Furthermore, in the SEQ ID NO: 1 polypeptide the position of the fluorophore (FAM-5) and quencher (TQ_2) has been swapped relative to the position of the fluorophore and quencher of the FRETS-VWF73 construct. Therefore, for GTI_FRET4 SEQ ID NO: 1, attachment of the fluorophore (FAM-5) occurs by substituting asparagine with cystine at position 15. The quencher (TQ_2) was attached by substituting glutamine with lysine at position 4 (FIG. 2 and Table 4).
For this experiment, substrate concentration and fluorescence reader settings determined on the previous experiment are used. The specimens tested (listed in Table 3), include a panel of proficiency samples prepared for use with ATS-13 (Gen-Probe GTI Diagnostics, Inc., U.S.A., Cat# ATS-13) which included samples with normal or deficient ADAMTS13 activity levels. In addition, six Factor Assay ConTrol plasma were used (2 FACT, 2 A-FACT and 2 B-FACT, from George King Biomedical Inc., Kansas, USA). The assays for the SEQ ID NO: 1 substrate and for the prior art FRETS-VWF73 assay were performed generally as according to the procedure described in Example 1. Substrate is prepared according to the conditions used for initial testing of the substrate, which prepared the molar amount of SEQ ID NO: 1 polypeptide substrate used in the assay to be equivalent to the molar amount of FRETS-VWF73 used in the prior art. The […] assays were read at 0, 5, 10, 15, 20, 30, 45 minutes.
Testing of substrate for cleavability by ADAMTS13 is determined as is generally described in Example 1. […]

DREKAPNLVYMVTGCPASDEIKRLPGDIQVVPIEVIGWPNAPILIQDEETLPREAPDLVLQR [GTI_FRET4]
% Normal ADAMTS13 Values Calculated Using GTI_FRET4 Substrate (sample Positive Control High, incubation 60 Minutes): 51 % Normal | % Normal ADAMTS13 Values Calculated Using GTI_FRET4 Substrate (sample Positive Control High, incubation 75 Minutes): 54 % Normal | % Normal ADAMTS13 Values Calculated Using GTI_FRET4 Substrate (sample Positive Control High, incubation 90 Minutes): 55 % Normal | Increase in Fluorescence Values (X minute - 0 minute Reading) (sample Positive Control Low, 15 min): 2,182 RFU | Increase in Fluorescence Values (X minute - 0 minute Reading) (sample Positive Control Low, 30 min): 3,902 RFU | Increase in Fluorescence Values (X minute - 0 minute Reading) (sample Positive Control Low, 45 min): 5,511 RFU | Increase in Fluorescence Values (X minute - 0 minute Reading) (sample Positive Control Low, 60 min): 7,169 RFU | Increase in Fluorescence Values (X minute - 0 minute Reading) (sample Positive Control Low, 75 min): 8,789 RFU | Increase in Fluorescence Values (X minute - 0 minute Reading) (sample Positive Control Low, 90 min): 10,370 RFU | % Normal ADAMTS13 Values Calculated Using GTI_FRET4 Substrate (sample Positive Control Low, incubation 15 Minutes): 10 % Normal | % Normal ADAMTS13 Values Calculated Using GTI_FRET4 Substrate (sample Positive Control Low, incubation 30 Minutes): 10 % Normal | % Normal ADAMTS13 Values Calculated Using GTI_FRET4 Substrate (sample Positive Control Low, incubation 45 Minutes): 10 % Normal | % Normal ADAMTS13 Values Calculated Using GTI_FRET4 Substrate (sample Positive Control Low, incubation 60 Minutes): 10 % Normal | % Normal ADAMTS13 Values Calculated Using GTI_FRET4 Substrate (sample Positive Control Low, incubation 75 Minutes): 10 % Normal | % Normal ADAMTS13 Values Calculated Using GTI_FRET4 Substrate (sample Positive Control Low, incubation 90 Minutes): 9 % Normal | Increase in Fluorescence Values (X minute - 0 minute Reading) (sample UAMS041609, 15 min): 3,876 RFU | Increase in Fluorescence Values (X minute - 0 minute Reading) (sample UAMS041609, 30 min): 7,931 RFU | Increase in Fluorescence Values (X minute - 0 minute Reading) (sample UAMS041609, 45 min): 11,692 RFU | Increase in Fluorescence Values (X minute - 0 minute Reading) (sample UAMS041609, 60 min): 15,886 RFU | Increase in Fluorescence Values (X minute - 0 minute Reading) (sample UAMS041609, 75 min): 19,867 RFU | Increase in Fluorescence Values (X minute - 0 minute Reading) (sample UAMS041609, 90 min): 24,709 RFU | % Normal ADAMTS13 Values Calculated Using GTI_FRET4 Substrate (sample UAMS041609, incubation 15 Minutes): 19 % Normal | % Normal ADAMTS13 Values Calculated Using GTI_FRET4 Substrate (sample UAMS041609, incubation 30 Minutes): 22 % Normal | % Normal ADAMTS13 Values Calculated Using GTI_FRET4 Substrate (sample UAMS041609, incubation 45 Minutes): 23 % Normal | % Normal ADAMTS13 Values Calculated Using GTI_FRET4 Substrate (sample UAMS041609, incubation 60 Minutes): 24 % Normal | % Normal ADAMTS13 Values Calculated Using GTI_FRET4 Substrate (sample UAMS041609, incubation 75 Minutes): 26 % Normal | % Normal ADAMTS13 Values Calculated Using GTI_FRET4 Substrate (sample UAMS041609, incubation 90 Minutes): 27 % Normal | Increase in Fluorescence Values (X minute - 0 minute Reading) (sample VF, 15 min): 1,292 RFU | Increase in Fluorescence Values (X minute - 0 minute Reading) (sample VF, 30 min): 2,436 RFU | Increase in Fluorescence Values (X minute - 0 minute Reading) (sample VF, 45 min): 3,552 RFU | Increase in Fluorescence Values (X minute - 0 minute Reading) (sample VF, 60 min): 4,690 RFU | Increase in Fluorescence Values (X minute - 0 minute Reading) (sample VF, 75 min): 5,784 RFU | Increase in Fluorescence Values (X minute - 0 minute Reading) (sample VF, 90 min): 7,260 RFU | % Normal ADAMTS13 Values Calculated Using GTI_FRET4 Substrate (sample VF, incubation 15 Minutes): 5 % Normal | % Normal ADAMTS13 Values Calculated Using GTI_FRET4 Substrate (sample VF, incubation 30 Minutes): 6 % Normal | % Normal ADAMTS13 Values Calculated Using GTI_FRET4 Substrate (sample VF, incubation 45 Minutes): 6 % Normal | % Normal ADAMTS13 Values Calculated Using GTI_FRET4 Substrate (sample VF, incubation 60 Minutes): 6 % Normal | % Normal ADAMTS13 Values Calculated Using GTI_FRET4 Substrate (sample VF, incubation 75 Minutes): 5 % Normal | % Normal ADAMTS13 Values Calculated Using GTI_FRET4 Substrate (sample VF, incubation 90 Minutes): 6 % Normal
